According to a protein production outcome set (Wang et al. 2014):

Experiment: label from the status in PepcDB records

Protein production, not failed:
MTALPLSAVTVVSVCYNSDRLIRDLVTAIPDETPIILVDNGHTNTFADLPPHRNVIIVKLDHNLGFGRGCNAGADVAQTPWILFLNPDARLNPGAIEGLLQAAAQYPSAIAFNPRIYNEDGSPYFKRRSWLLPRQHYMKKGWPSADAVVPVLSGAALFVSKKSFDYIGGFDPSIFMYHEDDDLSLRLSALGELRFVRNSTVVHFAGYSSGRSPEIARFKAYHMAQSKIYAGQKHHRPFAKTSTLLQGCLLLLSPHVFFSARRRAKALGFLHGALAKIWSELLNAASTSSQKKTLEHHHHHH
MTAPTLSRAAMEKVIRTYYDGCNEADEAKMIACFVPEAVHYFPAGMYGGAFRGAAQIAHRWRTAVETLGSYWTIDALVIDAETAEAAIEWTHFKTNQDKVLRGAECVEFDRASGLIREIRAFYASPQAEGIARLELGDFDYAGRGYRVTSPRKPA
MTASTAPQTEPHKTSAPESGPVMLLVATIKGAWFLASDPARRTWELRGPVFLGHTIHHIVQDPREPERMLMAARTGHLGPTVFRSDDGGGNWTEATRPPAFNKAPEGETGRVVDHVFWLTPGHASEPGTWYAGTSPQGLFRSTDHGASWEPVAGFNDHPMRRAWTGGEQDGTPDGPKMHSILVDPRDPKHLYIGMSSGGVFESTDAGTDWKPLNRGCAANFLPDPNVEFGHDPHCVVQHPAAPDILYQQNHCGIYRMDRREGVWKRIGDAMPREVGDIGFPIVVHQRDPRTVWVFPMDGSDVWPRVSPGGKPAVYVTRDAGESWQRQDRGLPTDQAWLTVKRQAMTADAHAPVGVYFGTTGGEIWASADEGEHWQCIASHLPHIYAVQSARPV

Protein production, failed:
MTAEDGAAYIAFLADPQPSAQWVGRRGTPRDRHDWRPFEGPLSPASIRHARKILSTLYGCLIEQGHARANPFEVLSLPTGGDAPRIQVARSFTEPQWRFLLRHVSSLPADDPRAARLTFMLHLAHASGLRISEQAVATVGHLTWSGHWTLAVPGPKPRQIPLPEAVIDALRGHLAARGLGRGFESLPAATPLIGRVKTGDEGDALSVAQIGAIWKRYFAQAATLAGGEDDAAQLAQASAHWMRHTAGAHAVARGVALEVVQQQLGHASLDTTSMYVLAA
MTAFAAASPRAAVRTGFDGLAISVATRAMMKNLDQNFDAILITGPTASGKSALALRLARERNGVVINADSMQVYDTLRVLTARPSDHEMEGVPHRLYGHVPAGSAYSTGEWLRDISGLLSDLRGEGRFPVIVGGTGLYFKALTGGLSDMPAIPDDLREGLRARLIEEGAAKLHAELVSRDPSMAQMLQPGDGQRIVRALEVLEATGKSIRDFQRASGPMIIDPERAQKFIVLPERPVLHDRINRRFEAMMDSGAVEEVQALLALNLAPDATAMKAIGVAQIADMLTGRMGAAEVIEKSAAATRQYAKRQMTWFRNQMGDDWTRIQPLEHHHHHH
MTAIAPVITIDGPSGAGKGTLCKAMAEALQWHLLDSGAIYRVLALAALHHHVDVASEDALVPLASHLDVRFVSTNGNLEVILEGEDVSGEIRTQEVANAASQVAAFPRVREALLRRQRAFRELPGLIADGRDMGTVVFPDAPVKIFLDASSEERAHRRMLQLQEKGFSVNFERLLAEIKERDDRDRNRAVAPLVPAADALVLDSTTLSIEQVIEKALQYARQKLALA
MTAIPLTFYLGLAALLFSIGLYGVMTHKSGIRMIMCIELMLNSANLNLVAFSSYTDTLNGQVFAIFSIALAAAEAAVGFAIFMAIYRMHDKINLDELNILRW
MTAIRFDHVDVIFGTHTKEALKLLDQGLGRAEILKRTGQVLGVEDACLDVNRGEICVLMGLSGSGKSSLLRCINGLNKVSRGKLLIEHEGSQVDIANCSPATLKAMRTKRIAMVFQKFALMPWLTVAENVGFGLEMQGRPAAERKKLIDEKLELVGLSQWRDKRPDSLSGGMQQRVGLARALAMDGDILLMDEPFSALDPLIRQQLQDELLVLQRQLHKTIVFVSHDLDEALKIGTRIAIMKDGRIIQHGKPEEIVLSPADDYVRTFVAHTNPLNVLCGQSLMRGLDQCIRQNDEICFDQGRDCWIGLSEGDVLKGARQGSNVIDLQRWRQGDPVEKLRREPTLVDVSIRMRDALQIRYQTGHKLVLQEQDRVVGVLGDSELYHALLGKN
